# Source: patent publication US9657062B2, “Ghrelin analogues” (Zealand Pharma A/S, priority 2012, dated 2017)
# *1 amine or outer side, *2 acyl side, *3 side chain or, on linkers, in order; H or OH if unused. Side-chain parts run from the residue outwards. [ ]: non-standard residue; d: D form. The star is where a group is joined. γGlu = O=C(O)[C@H](CCC(=O)[*:2])N[*:1]; Palmitoyl = CCCCCCCCCCCCCCCC(=O)*; Octanoyl = CCCCCCCC(=O)*; Dap = NC[C@H](N)C(=O)O; Octyl = CCCCCCCC*
# Target: human growth hormone secretagogue receptor type 1a (human, UniProt Q92847 1-366)
# Assay: cell-based or functional assay
# Sequence of human growth hormone secretagogue receptor type 1a (Q92847 whole entry): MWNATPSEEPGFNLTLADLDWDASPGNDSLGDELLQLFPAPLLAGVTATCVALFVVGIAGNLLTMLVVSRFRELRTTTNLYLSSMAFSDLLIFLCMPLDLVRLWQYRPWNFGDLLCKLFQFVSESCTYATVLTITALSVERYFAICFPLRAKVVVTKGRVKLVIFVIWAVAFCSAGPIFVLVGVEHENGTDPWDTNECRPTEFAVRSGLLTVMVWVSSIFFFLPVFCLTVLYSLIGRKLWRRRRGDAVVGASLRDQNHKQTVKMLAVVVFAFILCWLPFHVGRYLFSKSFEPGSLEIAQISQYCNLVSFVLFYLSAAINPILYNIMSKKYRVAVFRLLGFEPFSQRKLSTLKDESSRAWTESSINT
row,EC50 (nM); Ca2+ induction in HEK293 cells stably expressing the human ghrelin receptor [nM],Binder
1,0.566,H-PS[Dap](Octanoyl)FLSPEHSRVSSRKESK([γGlu-Palmitoyl])KPPA-NH2 (SMILES CCCCCCCCCCCCCCCC(=O)N[C@@H](CCC(=O)NCCCC[C@H](NC(=O)[C@H](CO)NC(=O)[C@H](CCC(=O)O)NC(=O)[C@H](CCCCN)NC(=O)[C@H](CCCNC(=N)N)NC(=O)[C@H](CO)NC(=O)[C@H](CO)NC(=O)[C@@H](NC(=O)[C@H](CCCNC(=N)N)NC(=O)[C@H](CO)NC(=O)[C@H](Cc1c[nH]cn1)NC(=O)[C@H](CCC(=O)O)NC(=O)[C@@H]1CCCN1C(=O)[C@H](CO)NC(=O)[C@H](CC(C)C)NC(=O)[C@H](Cc1ccccc1)NC(=O)[C@H](CNC(=O)CCCCCCC)NC(=O)[C@H](CO)NC(=O)[C@@H]1CCCN1)C(C)C)C(=O)N[C@@H](CCCCN)C(=O)N1CCC[C@H]1C(=O)N1CCC[C@H]1C(=O)N[C@@H](C)C(N)=O)C(=O)O) [H-PS-Dap(N-octanoyl)-FLSPEHSRVSSRKES-K(hexadecanoyl-isoGlu)-KPPA-NH2]
2,0.341,H-PSS(Octyl)FLSPEHSRPSSR-NH2 (SMILES CCCCCCCCOC[C@H](NC(=O)[C@H](CO)NC(=O)[C@@H]1CCCN1)C(=O)N[C@@H](Cc1ccccc1)C(=O)N[C@@H](CC(C)C)C(=O)N[C@@H](CO)C(=O)N1CCC[C@H]1C(=O)N[C@@H](CCC(=O)O)C(=O)N[C@@H](Cc1c[nH]cn1)C(=O)N[C@@H](CO)C(=O)N[C@@H](CCCNC(=N)N)C(=O)N1CCC[C@H]1C(=O)N[C@@H](CO)C(=O)N[C@@H](CO)C(=O)N[C@@H](CCCNC(=N)N)C(N)=O) [H-PS-S(O-octyl)-FLSPEHSRPSSR-NH2]
3,0.388,H-PSS(Octyl)FLSPK-NH2 (SMILES CCCCCCCCOC[C@H](NC(=O)[C@H](CO)NC(=O)[C@@H]1CCCN1)C(=O)N[C@@H](Cc1ccccc1)C(=O)N[C@@H](CC(C)C)C(=O)N[C@@H](CO)C(=O)N1CCC[C@H]1C(=O)N[C@@H](CCCCN)C(N)=O) [H-PS-S(O-octyl)-FLSPK-NH2]
4,0.496,H-PSS(Octyl)FLSPEHQRVQQRKESK([γGlu-Palmitoyl])KPPAKLQPR-NH2 (SMILES CCCCCCCCCCCCCCCC(=O)N[C@@H](CCC(=O)NCCCC[C@H](NC(=O)[C@H](CO)NC(=O)[C@H](CCC(=O)O)NC(=O)[C@H](CCCCN)NC(=O)[C@H](CCCNC(=N)N)NC(=O)[C@H](CCC(N)=O)NC(=O)[C@H](CCC(N)=O)NC(=O)[C@@H](NC(=O)[C@H](CCCNC(=N)N)NC(=O)[C@H](CCC(N)=O)NC(=O)[C@H](Cc1c[nH]cn1)NC(=O)[C@H](CCC(=O)O)NC(=O)[C@@H]1CCCN1C(=O)[C@H](CO)NC(=O)[C@H](CC(C)C)NC(=O)[C@H](Cc1ccccc1)NC(=O)[C@H](COCCCCCCCC)NC(=O)[C@H](CO)NC(=O)[C@@H]1CCCN1)C(C)C)C(=O)N[C@@H](CCCCN)C(=O)N1CCC[C@H]1C(=O)N1CCC[C@H]1C(=O)N[C@@H](C)C(=O)N[C@@H](CCCCN)C(=O)N[C@@H](CC(C)C)C(=O)N[C@@H](CCC(N)=O)C(=O)N1CCC[C@H]1C(=O)N[C@@H](CCCNC(=N)N)C(N)=O)C(=O)O) [H-PS-S(O-octyl)-FLSPEHQRVQQRKES-K(hexadecanoyl-isoGlu)-KPPAKLQPR-NH2]
5,0.195,H-PS[Dap](Octanoyl)FLSPY-NH2 (SMILES CCCCCCCC(=O)NC[C@H](NC(=O)[C@H](CO)NC(=O)[C@@H]1CCCN1)C(=O)N[C@@H](Cc1ccccc1)C(=O)N[C@@H](CC(C)C)C(=O)N[C@@H](CO)C(=O)N1CCC[C@H]1C(=O)N[C@@H](Cc1ccc(O)cc1)C(N)=O) [H-PS-Dap(N-octanoyl)-FLSPY-NH2]
6,0.296,H-PSS(Octyl)FLSPEHSRVSSRKESKSPPAKLSPR-NH2 (SMILES CCCCCCCCOC[C@H](NC(=O)[C@H](CO)NC(=O)[C@@H]1CCCN1)C(=O)N[C@@H](Cc1ccccc1)C(=O)N[C@@H](CC(C)C)C(=O)N[C@@H](CO)C(=O)N1CCC[C@H]1C(=O)N[C@@H](CCC(=O)O)C(=O)N[C@@H](Cc1c[nH]cn1)C(=O)N[C@@H](CO)C(=O)N[C@@H](CCCNC(=N)N)C(=O)N[C@H](C(=O)N[C@@H](CO)C(=O)N[C@@H](CO)C(=O)N[C@@H](CCCNC(=N)N)C(=O)N[C@@H](CCCCN)C(=O)N[C@@H](CCC(=O)O)C(=O)N[C@@H](CO)C(=O)N[C@@H](CCCCN)C(=O)N[C@@H](CO)C(=O)N1CCC[C@H]1C(=O)N1CCC[C@H]1C(=O)N[C@@H](C)C(=O)N[C@@H](CCCCN)C(=O)N[C@@H](CC(C)C)C(=O)N[C@@H](CO)C(=O)N1CCC[C@H]1C(=O)N[C@@H](CCCNC(=N)N)C(N)=O)C(C)C) [H-PS-S(O-octyl)-FLSPEHSRVSSRKESKSPPAKLSPR-NH2]
7,0.525,H-PSS(Octyl)FLSPEHSRVSSRPESSSPPAKLSPR-NH2 (SMILES CCCCCCCCOC[C@H](NC(=O)[C@H](CO)NC(=O)[C@@H]1CCCN1)C(=O)N[C@@H](Cc1ccccc1)C(=O)N[C@@H](CC(C)C)C(=O)N[C@@H](CO)C(=O)N1CCC[C@H]1C(=O)N[C@@H](CCC(=O)O)C(=O)N[C@@H](Cc1c[nH]cn1)C(=O)N[C@@H](CO)C(=O)N[C@@H](CCCNC(=N)N)C(=O)N[C@H](C(=O)N[C@@H](CO)C(=O)N[C@@H](CO)C(=O)N[C@@H](CCCNC(=N)N)C(=O)N1CCC[C@H]1C(=O)N[C@@H](CCC(=O)O)C(=O)N[C@@H](CO)C(=O)N[C@@H](CO)C(=O)N[C@@H](CO)C(=O)N1CCC[C@H]1C(=O)N1CCC[C@H]1C(=O)N[C@@H](C)C(=O)N[C@@H](CCCCN)C(=O)N[C@@H](CC(C)C)C(=O)N[C@@H](CO)C(=O)N1CCC[C@H]1C(=O)N[C@@H](CCCNC(=N)N)C(N)=O)C(C)C) [H-PS-S(O-octyl)-FLSPEHSRVSSRPESSSPPAKLSPR-NH2]
8,0.432,H-PS[NH‑CH(n-C10H21)‑C(O)]FLSPK-NH2 [H-PS-[NH-CH(n-C10H21)-C(O)]-FLSPK-NH2]
9,0.298,H-PSS(Octanoyl)FLSPEHQRVQQRKESKKPPAKLQPR-OH [H-PS-S(O-octanoyl)-FLSPEHQRVQQRKESKKPPAKLQPR-OH]
10,0.33,H-PSS(Octyl)FLSPEHQRVQRKESKKPPAKLQPR-NH2 (SMILES CCCCCCCCOC[C@H](NC(=O)[C@H](CO)NC(=O)[C@@H]1CCCN1)C(=O)N[C@@H](Cc1ccccc1)C(=O)N[C@@H](CC(C)C)C(=O)N[C@@H](CO)C(=O)N1CCC[C@H]1C(=O)N[C@@H](CCC(=O)O)C(=O)N[C@@H](Cc1c[nH]cn1)C(=O)N[C@@H](CCC(N)=O)C(=O)N[C@@H](CCCNC(=N)N)C(=O)N[C@H](C(=O)N[C@@H](CCC(N)=O)C(=O)N[C@@H](CCCNC(=N)N)C(=O)N[C@@H](CCCCN)C(=O)N[C@@H](CCC(=O)O)C(=O)N[C@@H](CO)C(=O)N[C@@H](CCCCN)C(=O)N[C@@H](CCCCN)C(=O)N1CCC[C@H]1C(=O)N1CCC[C@H]1C(=O)N[C@@H](C)C(=O)N[C@@H](CCCCN)C(=O)N[C@@H](CC(C)C)C(=O)N[C@@H](CCC(N)=O)C(=O)N1CCC[C@H]1C(=O)N[C@@H](CCCNC(=N)N)C(N)=O)C(C)C) [H-PS-S(O-octyl)-FLSPEHQRVQRKESKKPPAKLQPR-NH2]
11,0.359,H-PSS(Octyl)FLSPEHSRVSSRKESSKPPAKLSPR-NH2 (SMILES CCCCCCCCOC[C@H](NC(=O)[C@H](CO)NC(=O)[C@@H]1CCCN1)C(=O)N[C@@H](Cc1ccccc1)C(=O)N[C@@H](CC(C)C)C(=O)N[C@@H](CO)C(=O)N1CCC[C@H]1C(=O)N[C@@H](CCC(=O)O)C(=O)N[C@@H](Cc1c[nH]cn1)C(=O)N[C@@H](CO)C(=O)N[C@@H](CCCNC(=N)N)C(=O)N[C@H](C(=O)N[C@@H](CO)C(=O)N[C@@H](CO)C(=O)N[C@@H](CCCNC(=N)N)C(=O)N[C@@H](CCCCN)C(=O)N[C@@H](CCC(=O)O)C(=O)N[C@@H](CO)C(=O)N[C@@H](CO)C(=O)N[C@@H](CCCCN)C(=O)N1CCC[C@H]1C(=O)N1CCC[C@H]1C(=O)N[C@@H](C)C(=O)N[C@@H](CCCCN)C(=O)N[C@@H](CC(C)C)C(=O)N[C@@H](CO)C(=O)N1CCC[C@H]1C(=O)N[C@@H](CCCNC(=N)N)C(N)=O)C(C)C) [H-PS-S(O-octyl)-FLSPEHSRVSSRKESSKPPAKLSPR-NH2]
12,0.454,H-PSS(Octyl)FLSPEHSRVSSRKESSSPPAKLSPR-NH2 (SMILES CCCCCCCCOC[C@H](NC(=O)[C@H](CO)NC(=O)[C@@H]1CCCN1)C(=O)N[C@@H](Cc1ccccc1)C(=O)N[C@@H](CC(C)C)C(=O)N[C@@H](CO)C(=O)N1CCC[C@H]1C(=O)N[C@@H](CCC(=O)O)C(=O)N[C@@H](Cc1c[nH]cn1)C(=O)N[C@@H](CO)C(=O)N[C@@H](CCCNC(=N)N)C(=O)N[C@H](C(=O)N[C@@H](CO)C(=O)N[C@@H](CO)C(=O)N[C@@H](CCCNC(=N)N)C(=O)N[C@@H](CCCCN)C(=O)N[C@@H](CCC(=O)O)C(=O)N[C@@H](CO)C(=O)N[C@@H](CO)C(=O)N[C@@H](CO)C(=O)N1CCC[C@H]1C(=O)N1CCC[C@H]1C(=O)N[C@@H](C)C(=O)N[C@@H](CCCCN)C(=O)N[C@@H](CC(C)C)C(=O)N[C@@H](CO)C(=O)N1CCC[C@H]1C(=O)N[C@@H](CCCNC(=N)N)C(N)=O)C(C)C) [H-PS-S(O-octyl)-FLSPEHSRVSSRKESSSPPAKLSPR-NH2]
13,> 1000,H-GSSFLSPEHQKAQQRKESKKPPAKLQPR-OH [rat ghrelin without octanoyl moiety at position 3]
14,0.364,H-PS[Dap](Octanoyl)FLSPK-NH2 (SMILES CCCCCCCC(=O)NC[C@H](NC(=O)[C@H](CO)NC(=O)[C@@H]1CCCN1)C(=O)N[C@@H](Cc1ccccc1)C(=O)N[C@@H](CC(C)C)C(=O)N[C@@H](CO)C(=O)N1CCC[C@H]1C(=O)N[C@@H](CCCCN)C(N)=O) [H-PS-Dap(N-octanoyl)-FLSPK-NH2]
